According to US20240301052A1 (LANOVA MEDICINES DEVELOPMENT, published 2024):
Like-named read-outs stand apart in the source and are kept apart here.

Experiments:
human SLC34A2 [1] = target: T1, human SLC34A2 (human, UniProt O95436 1-690); test: FACS, HEK293/human SLC34A2 cells
T1 construct: whole, on cells; also called human solute carrier 34 A2; NaPi2b
T1 sequence (looked up): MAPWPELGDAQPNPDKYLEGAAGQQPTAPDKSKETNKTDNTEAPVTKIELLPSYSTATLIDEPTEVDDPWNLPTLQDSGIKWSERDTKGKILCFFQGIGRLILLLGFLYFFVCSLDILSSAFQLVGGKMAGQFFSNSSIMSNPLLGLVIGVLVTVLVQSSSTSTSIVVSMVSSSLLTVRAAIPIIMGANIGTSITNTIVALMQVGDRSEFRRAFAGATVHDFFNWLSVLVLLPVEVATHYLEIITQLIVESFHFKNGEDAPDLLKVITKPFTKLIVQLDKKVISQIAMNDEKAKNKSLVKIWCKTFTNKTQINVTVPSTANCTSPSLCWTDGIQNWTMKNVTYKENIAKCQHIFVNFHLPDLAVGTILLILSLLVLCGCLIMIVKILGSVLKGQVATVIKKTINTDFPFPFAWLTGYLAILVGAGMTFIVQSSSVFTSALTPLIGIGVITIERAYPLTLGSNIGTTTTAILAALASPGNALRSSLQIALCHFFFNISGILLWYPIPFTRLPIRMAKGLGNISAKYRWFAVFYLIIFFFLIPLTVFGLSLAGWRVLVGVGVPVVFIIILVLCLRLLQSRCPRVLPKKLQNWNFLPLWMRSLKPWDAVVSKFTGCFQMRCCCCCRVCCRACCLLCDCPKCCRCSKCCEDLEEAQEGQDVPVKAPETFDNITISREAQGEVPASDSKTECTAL
Protocol: (§1) In another testing, cell based binding of hu Abs on human SLC34A2 expressing cells were assessed using flow cytometry. Briefly, the HEK293/H_SLC34A2, OVCAR3 and RMG-1 cells were incubated with hu Abs. After incubation at 4° C. for 60 minutes, the cells were washed with FACS buffer twice, then stained with fluorescent conjugated secondary antibody at 4° C. for 30 minutes. After that the cells were washed twice and analyzed by flow cytometry.

human SLC34A2 [2] = target: T1, human SLC34A2; test: FACS, OVCAR3 cells
Protocol: as §1

Rhesus SLC34A2 [3] = target: T2, Rhesus SLC34A2 (Rhesus, UniProt F7HDA3 1-690); test: FACS, HEK293/Rhesus SLC34A2 cells
T2 construct: whole, on cells
T2 sequence: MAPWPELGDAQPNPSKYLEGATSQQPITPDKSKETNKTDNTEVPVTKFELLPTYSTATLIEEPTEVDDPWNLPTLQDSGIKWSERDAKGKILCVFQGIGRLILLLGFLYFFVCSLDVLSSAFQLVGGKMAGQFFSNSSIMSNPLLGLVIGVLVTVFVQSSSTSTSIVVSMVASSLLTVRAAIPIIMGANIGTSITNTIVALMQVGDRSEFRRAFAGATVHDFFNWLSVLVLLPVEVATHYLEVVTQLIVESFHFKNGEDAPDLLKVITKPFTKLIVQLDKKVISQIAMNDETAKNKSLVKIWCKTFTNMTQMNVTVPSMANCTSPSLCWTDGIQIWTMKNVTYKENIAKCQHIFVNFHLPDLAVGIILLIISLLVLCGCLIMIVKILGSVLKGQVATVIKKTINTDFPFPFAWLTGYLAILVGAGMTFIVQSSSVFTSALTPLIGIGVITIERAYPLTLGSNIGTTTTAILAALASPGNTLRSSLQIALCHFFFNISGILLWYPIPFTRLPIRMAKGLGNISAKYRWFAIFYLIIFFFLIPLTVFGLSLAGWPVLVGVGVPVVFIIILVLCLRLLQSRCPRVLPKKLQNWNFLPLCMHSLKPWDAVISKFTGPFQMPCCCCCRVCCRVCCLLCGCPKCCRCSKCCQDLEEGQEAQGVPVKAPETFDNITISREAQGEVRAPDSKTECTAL

human SLC34A2 [4] = target: T1, human SLC34A2; test: FACS, OVCAR3 cells; remark: listed apart in the source
human SLC34A2 [5] = target: T1, human SLC34A2; test: FACS, HEK293/human SLC34A2 cells; remark: listed apart in the source
Protocol: The PTM-derisked VH chains were first tested for their impact on target binding. Cell based binding of PTM Abs on human SLC34A2 expressing cells were assessed using flow cytometry. Briefly, the HEK293/H_SLC34A2 cells were incubated with PTM Abs (from 200 nM, 4 folds dilution, 8 points). After incubation at 4° C. for 60 minutes, the cells were washed with FACS buffer twice, then stained with fluorescent conjugated secondary antibody at 4° C. for 30 minutes. After that the cells were washed twice and analyzed by flow cytometry.

human SLC34A2 [6] = target: T1, human SLC34A2; test: FACS, OVCAR3 cells; remark: listed apart in the source
Protocol: The binding of these humanized antibodies to OVCAR3 cells was evaluated as described above, and the results are shown in FIG. 12A-D and Tables 16A-D.

human SLC34A2 [7] = target: T1, human SLC34A2; test: cell-based or functional assay
human SLC34A2 [8] = target: T1, human SLC34A2; test: FACS, RMG-1 cells
Protocol: as §1

Rhesus SLC34A2 [9] = target: T2, Rhesus SLC34A2; test: FACS, HEK293/Rhesus SLC34A2 cells; remark: listed apart in the source
human SLC34A2 [10] = target: T1, human SLC34A2; test: FACS, HEK293/human SLC34A2 cells; remark: listed apart in the source
Protocol: (§2) Briefly, OVCAR3 cells or HEK293 cells expressing human SLC34A2 were incubated with chimeric antibodies (from 200 nM, 4 folds dilution, 8 points). After incubation at 4° C. for 60 minutes, the cells were washed with FACS buffer twice, then stained with fluorescent conjugated secondary antibody at 4° C. for 30 minutes. After that the cells were washed twice and analyzed by flow cytometry.

Rhesus SLC34A2 [11] = target: T2, Rhesus SLC34A2; test: FACS, HEK293/Rhesus SLC34A2 cells; remark: listed apart in the source
Protocol: as §2, with “the Rhesus SLC34A2 expressing HEK293 engineering” for “OVCAR3”, “(HEK293/Rhesus_SLC34A2)” for “or HEK293 cells expressing human SLC34A2”, “Abs” for “antibodies”

human SLC34A2 [12] = target: T1, human SLC34A2; test: cell-based or functional assay; remark: listed apart in the source
human SLC34A2 [13] = target: T1, human SLC34A2; test: FACS, RMG-1 cells; remark: listed apart in the source
Protocol: Based on the foregoing cell-based binding results, some of the chimeric antibodies were selected for further cell based binding on human SLC34A2 expressing cells using flow cytometry. RMG-1 cells were incubated with the selected chimeric antibodies (from 200 nM, 4 folds dilution, 8 points). After incubation at 4° C. for 60 minutes, the cells were washed with FACS buffer twice, then stained with fluorescent conjugated secondary antibody at 4° C. for 30 minutes. Afterwards the cells were washed twice and analyzed by flow cytometry.

human SLC34A2 [14] = target: T1, human SLC34A2; test: FACS, OVCAR3 cells; remark: listed apart in the source
Summary of the method: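 Chimeric hIgG1 antibodies titrated from 200 nM (4-fold, 8 points) on OVCAR3 cells or HEK293 cells expressing human SLC34A2, 60 min at 4° C. Bound antibody detected with fluorescent secondary antibody (30 min, 4° C) and measured by flow cytometry.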

Cynomolgus SLC34A2 = target: T3, Cynomolgus SLC34A2 (Cynomolgus, UniProt A0A2K5UHY1 1-690); test: FACS, cells expressing Cynomolgus SLC34A2
T3 construct: whole, on cells; also called Cyno SLC34A2
T3 sequence: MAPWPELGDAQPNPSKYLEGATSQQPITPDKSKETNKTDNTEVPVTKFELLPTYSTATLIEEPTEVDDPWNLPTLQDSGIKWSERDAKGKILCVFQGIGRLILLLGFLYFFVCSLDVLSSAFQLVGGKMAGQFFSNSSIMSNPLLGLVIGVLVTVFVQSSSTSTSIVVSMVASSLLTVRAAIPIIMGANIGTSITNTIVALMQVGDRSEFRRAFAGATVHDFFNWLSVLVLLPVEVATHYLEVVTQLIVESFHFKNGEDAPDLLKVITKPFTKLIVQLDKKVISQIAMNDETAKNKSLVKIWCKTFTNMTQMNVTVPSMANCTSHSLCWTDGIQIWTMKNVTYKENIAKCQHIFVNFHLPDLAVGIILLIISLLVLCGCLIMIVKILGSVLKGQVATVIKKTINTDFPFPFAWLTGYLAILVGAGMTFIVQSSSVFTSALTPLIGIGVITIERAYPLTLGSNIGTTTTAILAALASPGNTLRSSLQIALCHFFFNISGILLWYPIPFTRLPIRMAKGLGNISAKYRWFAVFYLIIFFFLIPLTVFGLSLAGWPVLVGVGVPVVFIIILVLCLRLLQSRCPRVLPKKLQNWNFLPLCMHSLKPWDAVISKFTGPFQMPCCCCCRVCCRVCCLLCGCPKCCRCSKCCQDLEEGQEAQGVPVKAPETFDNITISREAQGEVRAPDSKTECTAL

human SLC34A2 [15] = target: T1, human SLC34A2; test: cell-based or functional assay; remark: listed apart in the source

B1: 62G10E4G8 VH_P3/VL hIgG1 (antibody, V domains shown)
VH: QVQLQQSGAEVVKPGASVKMSCKASGYTFPSYITHWVKQTPGQGLEWIGAIYPGNADTSYIQKFKGKATLTADKSSSTAYMQLSSLTSEDSAVYYCARGTYGTSAWFTYWGQGTLVTVSA
VL: DIVLTQSPATLSVTPGDSVSLSCRARQNIGNNLYWYQQKSHESPRLLIKYASQSISGIPSRFSGSGSGTDFTLTINSVETEDFGVYFCQQSFSWPLTFGAGTKLELK
notes: PTM-derisked chimeric, hIgG1; that P3 is the NA version follows from the humanized .p3 chains; also called 62G10E4G8.p3 hIgG1
EC50 (human SLC34A2 [1]): 9.08 nM
Top (human SLC34A2 [1]): 35700 MFI
EC50 (human SLC34A2 [2]): 6.98 nM
EC50 (Rhesus SLC34A2 [3]): 5 nM
Top (MFI) (Rhesus SLC34A2 [3]): 14400 MFI
EC50 (human SLC34A2 [4]): 9.1 nM
Top (MFI) (human SLC34A2 [4]): 72500 MFI
EC50 (human SLC34A2 [5]): 2.73 nM
Top (MFI) (human SLC34A2 [5]): 30800 MFI
EC50 (human SLC34A2 [6]): 6.98 nM
Top (MFI) (human SLC34A2 [6]): 30300 MFI
ADCC reporter EC50 (human SLC34A2 [7]): 4.23 nM
ADCC reporter Top (MFI) (human SLC34A2 [7]): 122000 MFI
EC50 (human SLC34A2 [8]): 14.8 nM
Top (human SLC34A2 [8]): 11200 MFI
EC50 (Rhesus SLC34A2 [9]): 4.3 nM
Top (MFI) (Rhesus SLC34A2 [9]): 36500 MFI

B2: xi55E5B6D12 hIgG1 (antibody, V domains shown)
VH: QVQLQQSGAEVVNSGASVKMSCKASGYTFTTYNMHWVKQTPGQGLEWIGAIYPGNGDTSYNQRFKGKATFTADRSSGTAYMQLSSLPSEDSAVYYCARGGYANGALVDWGQGTLVTVSA
VL: DILMTQSHKFMSTSVGDRVTITCKASQDVGTAVAWYQNKPGQSPKLLIFWTSTRHTGVPDRFTGSGSGTDFTLTISNVQSEDLADYFCQQYSRQPLTFGPGTKLEIK
notes: chimeric, hIgG1
EC50 (human SLC34A2 [10]): 1.8 nM
Top (MFI) (human SLC34A2 [10]): 115000 MFI
EC50 (Rhesus SLC34A2 [11]): 2.46 nM
Top (MFI) (Rhesus SLC34A2 [11]): 15900 MFI
EC50 (human SLC34A2 [4]): 5.1 nM
Top (MFI) (human SLC34A2 [4]): 71400 MFI
ADCC reporter EC50 (human SLC34A2 [12]): 3 nM
ADCC reporter Top (MFI) (human SLC34A2 [12]): 530000 MFI
EC50 (human SLC34A2 [5]): 1.48 nM
Top (MFI) (human SLC34A2 [5]): 30400 MFI
EC50 (human SLC34A2 [13]): 3.48 nM
Top (MFI) (human SLC34A2 [13]): 9500 MFI
EC50 (human SLC34A2 [14]): 3.31 nM
Top (MFI) (human SLC34A2 [14]): 42900 MFI
EC50 (Cynomolgus SLC34A2): 2.7 nM
Top (MFI) (Cynomolgus SLC34A2): 3540 MFI
EC50 (Rhesus SLC34A2 [9]): 4.9 nM
Top (MFI) (Rhesus SLC34A2 [9]): 46400 MFI
cytotoxicity EC50 (human SLC34A2 [15]): 0.69 nM
cytotoxicity Inhibition % (human SLC34A2 [15]): 96.7%
